Experimental findings from PMC5531466, “Biochemical characterization of a new nicotinamidase from an unclassified bacterium thriving in a geothermal water stream microbial mat community” (PLoS ONE, 2017) are described below.

For one series, the target named is T1, (UniProt H5SPS2).
T1 construct: full-length, N-terminal 6-histidine tag (pET28a)
The experiment in a line: HPLC nicotinamidase assay, Morrison equation; also thermal shift (Tm […] °C). It counts as biochemical.

The subject of the next series is CCOC(=O)c1cccnc1. Briefly: purified protein. The conditions noted are these: Fe2+ active site; C155 thiolate attack at C7 of ethylnicotinate.
Another series has as its system COC(=O)c1cccnc1. Briefly: purified protein. The conditions noted are these: Fe2+ active site.
Another series relates to Cc1cncc(C(N)=O)c1. Briefly: purified protein. The conditions noted are these: Fe2+ active site.
The test system of another series is NC(=O)c1cnccn1. The experiment in a line: purified protein. Conditions: Fe2+ active site.

T1 sequence (H5SPS2 1-220): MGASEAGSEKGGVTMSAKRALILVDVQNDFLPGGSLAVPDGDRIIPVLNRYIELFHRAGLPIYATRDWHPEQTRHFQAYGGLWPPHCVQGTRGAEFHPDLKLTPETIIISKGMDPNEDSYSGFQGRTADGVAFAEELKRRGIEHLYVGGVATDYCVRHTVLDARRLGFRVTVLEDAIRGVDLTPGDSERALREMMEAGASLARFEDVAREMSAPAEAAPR

Turning to `O=Cc1cccnc1` [nicotinaldehyde], the Ki (in general, a dissociation constant, usually derived from enzyme kinetics or from competition with a known ligand) on (UniProt H5SPS2) turned out to be 180 ± 1 nM.

As to “UbNic (nicotinamidase) (uncultured Acidobacteriota bacterium)”, the Km (commonly the concentration of substrate that gives half-maximal velocity) with CCOC(=O)c1cccnc1 was determined as 1310 ± 30 µM; in the series with COC(=O)c1cccnc1, 1080 ± 110 µM; in the series on Cc1cncc(C(N)=O)c1 it was 1090 ± 200 µM; with NC(=O)c1cnccn1 it was 330 ± 50 µM. Also, the kcat – broadly, the maximal rate divided by the concentration of active sites – with CCOC(=O)c1cccnc1 worked out at 3.7 ± 0.3 s⁻¹; with COC(=O)c1cccnc1, 54.5 ± 0.8 s⁻¹; with Cc1cncc(C(N)=O)c1 it was 43.7 ± 0.3 s⁻¹; in the series with NC(=O)c1cnccn1 it was 18.7 ± 0.3 s⁻¹. Besides, the kcat/Km (in general, the second-order rate constant that governs catalysis at low substrate concentration) was 2800 M⁻¹ s⁻¹ in the series on CCOC(=O)c1cccnc1, 50500 M⁻¹ s⁻¹ in the series on COC(=O)c1cccnc1, 40100 M⁻¹ s⁻¹ in the series on Cc1cncc(C(N)=O)c1 and 56700 M⁻¹ s⁻¹ in the series with NC(=O)c1cnccn1.
